In article PMC5577655:

Test system: NCCCC[C@H](N)C(=O)O
Assay: purified protein

Work on “lysyl-tRNA synthetase 1 (LdLysRS-1) (Leishmania donovani)” yielded a Km of 111 ± 15 µM.
